Laboratory results published in patent publication US20220040234A1 (JUVENTAS CELL THERAPY, published 2022).

Target: T1, CD19 on the CD19-positive human leukemia cell line Nalm-6 (human, UniProt P15391 20-556)
T1 sequence (looked up): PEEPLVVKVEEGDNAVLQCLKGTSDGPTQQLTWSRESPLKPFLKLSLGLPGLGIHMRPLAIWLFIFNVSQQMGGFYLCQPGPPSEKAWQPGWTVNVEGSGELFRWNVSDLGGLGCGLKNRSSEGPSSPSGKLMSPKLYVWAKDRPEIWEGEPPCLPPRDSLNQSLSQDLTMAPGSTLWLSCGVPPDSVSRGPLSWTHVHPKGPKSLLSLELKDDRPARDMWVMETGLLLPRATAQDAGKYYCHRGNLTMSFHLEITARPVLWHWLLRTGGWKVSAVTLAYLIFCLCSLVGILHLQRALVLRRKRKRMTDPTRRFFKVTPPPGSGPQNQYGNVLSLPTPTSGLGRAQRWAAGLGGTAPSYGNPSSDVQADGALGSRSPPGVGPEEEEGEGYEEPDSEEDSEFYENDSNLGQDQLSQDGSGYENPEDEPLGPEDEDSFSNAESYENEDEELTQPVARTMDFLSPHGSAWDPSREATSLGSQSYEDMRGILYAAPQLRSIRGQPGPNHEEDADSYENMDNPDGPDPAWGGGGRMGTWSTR
Test: cell-based or functional assay

B1: CD19-targeted chimeric antigen receptor (CAR) of SEQ ID NO. 1, expressed on the surface of CNCT19 cells (other)
chain: GSDIVLTQSPKFMSTSVGDRVSVTCKASQNVGTNVAWYQQKPGQSPKPLIYSATYRNSGVPDRFTGSGSGTDFTLTITNVQSKDLADYFCQQYNRYPYTSGGGTKLEIKRGGGGSGGGGSGGGGSQVQLQQSGAELVRPGSSVKISCKASGYAFSSYWMNWVKQRPGQGLEWIGQIYPGDGDTNYNGKFKGQATLTADKSSSTAYMQLSGLTSEDSAVYFCARKTISSVVDFYFDYWGQGTTLTVSSEFTTTPAPRPPTPAPTIASQPLSLRPEACRPAAGGAVHTRGLDFACDIYIWAPLAGTCGVLLLSLVITLYCKRGRKKLLYIFKQPFMRPVQTTQEEDGCSCRFPEEEEGGCELRVKFSRSADAPAYQQGQNQLYNELNLGRREEYDVLDKRRGRDPEMGGKPRRKNPQEGLYNELQKDKMAEAYSEIGMKGERRRGKGHDGLYQGLSTATKDTYDALHMQALPPR
IL-6 secreted by CNCT19 cells after 24 h co-culture with Nalm-6 target cells, effector/target ratio 2:1: 32.2 pg/mL | INF-γ secreted by CNCT19 cells after 24 h co-culture with Nalm-6 target cells, effector/target ratio 2:1: 6190 pg/mL | residual rate of target cells (Nalm-6) after 24 h co-culture with CNCT19 cells, effector/target ratio 1:2, flow cytometry: 2.8% | residual rate of target cells (Nalm-6) after 24 h co-culture with CNCT19 cells, effector/target ratio 2:1, flow cytometry: 1.1%
